# Paper doi:10.1101/2025.05.22.655525 (bioRxiv, 2025)
# Read-outs that look alike come from different tables or passages of the source.
# Assays:
# crystal structure [1] = target: the molecule itself; test: crystal structure
# crystal structure [2] = target: the molecule itself; test: crystal structure; remark: listed apart in the source
protein,measurement,setting,value
"human syntenin-1 PDZ tandem (PDZ1-PDZ2), residues 113-276 (domain or fragment, UniProt O00560 113-276, looked up) REVILCKDQDGKIGLRLKSIDNGIFVQLVQANSPASLVGLRFGDQVLQINGENCAGWSSDKAHKVLKQAFGEKITMTIRDRPFERTITMHKDSTGHVGFIFKNGKITSIVKDSSAARNGLLTEHNICEINGQNVIGLKDSQIADILSTSGTVVTITIMPAFIFE",binding result,crystal structure [1],binds
"human syntenin-1 PDZ tandem (PDZ1-PDZ2), residues 113-273 (domain or fragment, UniProt O00560 113-273, looked up) REVILCKDQDGKIGLRLKSIDNGIFVQLVQANSPASLVGLRFGDQVLQINGENCAGWSSDKAHKVLKQAFGEKITMTIRDRPFERTITMHKDSTGHVGFIFKNGKITSIVKDSSAARNGLLTEHNICEINGQNVIGLKDSQIADILSTSGTVVTITIMPAF",binding result,crystal structure [2],binds
